Results reported in US20240182562A1.
Substitutions are numbered along the chain they refer to.

B1: 7E3 (hybridoma clone, murine CLDN18.2 antigen-binding protein) (antibody, V domains shown)
VH: EVQLQQSGPELVKPGASVKMSCKASGYTFTNYIIHWVKQKPGQGLEWIGYINPYTDGPKYNEKFKGRATLTSDKSSSTAYMEFSSLTSEDSAVYYCARLNRGNAMDYWGQGTSVTVSS
VL: DIVMTQSPSSLTVTVREKVTLSCKSSQSLLNSGNQKNYLTWYQQKPGQPPKLLIYWASTRESGVPDRFTGSGSGTDFTLTISSVQAEDLAVYYCQNVYIYPFTFGAGTKLELKR
B2: 5E6 (hybridoma clone, murine CLDN18.2 antigen-binding protein) (antibody, V domains shown)
VH: B1 VH with I33V, I34M, H35N, T55N, P58T, K63R, R67K, Y80F, F83V, N100Y
VL: B1 VL
B3: 14E12 (hybridoma clone, murine CLDN18.2 antigen-binding protein) (antibody, V domains shown)
VH: B1 VH with Q6E
VL: DIVMTQSPSSLSVSAGEKVTMSCKSSQSLLNNGNQKNYLAWYQQKPGQPPKLLIYGASTRESGVPDRFTGSGSGTDFALTISSVQAEDLAVYYCQNDLYYPFTFGSGTKLDIKR
B4: 17B10 (hybridoma clone, murine CLDN18.2 antigen-binding protein) (antibody, V domains shown)
VH: B1 VH with Q6E
VL: B1 VL with V15A, R16G, L21M, S22N, V97D, I99S, Y100F, A106S, L112I

Target: Human CLDN18.1 (human) (UniProt P56856)
Sequence (P56856 whole entry): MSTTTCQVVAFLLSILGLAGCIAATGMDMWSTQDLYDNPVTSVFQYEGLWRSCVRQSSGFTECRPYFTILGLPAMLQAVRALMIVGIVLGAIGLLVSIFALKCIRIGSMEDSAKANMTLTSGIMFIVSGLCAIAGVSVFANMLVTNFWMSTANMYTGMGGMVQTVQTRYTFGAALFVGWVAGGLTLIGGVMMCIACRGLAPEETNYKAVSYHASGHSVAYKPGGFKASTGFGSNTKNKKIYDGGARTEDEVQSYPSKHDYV
Assay: FACS, hybridoma culture supernatant on 293T-human CLDN18.1 cells (permeable membrane treatment)

Row | Binder | Average fluorescence intensity
1 | B1 | 3040
2 | B2 | 4330
3 | B3 | 2580
4 | B4 | 2400

Target: Human CLDN18.1 (human) (UniProt P56856)
Assay: FACS, hybridoma culture supernatant on CHO-human CLDN18.1 cells (permeable membrane treatment)

Row | Binder | Average fluorescence intensity
5 | B1 | 3380
6 | B2 | 5370
7 | B3 | 1860
8 | B4 | 1680
